Source: patent publication US7384632B2, “Agonist anti-trk-C monoclonal antibodies” (Genentech, Inc., priority 2000, dated 2008)
Where two headings read alike, the source gives them in different places.

What was measured:
[1] = molecular target: T1, p75^NTR (LNGFR, p75) (Homo sapiens, UniProt P08138); details: equilibrium binding studies, neurotrophin-responsive neurons; cited from earlier work
T1 construct: host or cells: neurotrophin-responsive neurons
T1 sequence (P08138 29-427): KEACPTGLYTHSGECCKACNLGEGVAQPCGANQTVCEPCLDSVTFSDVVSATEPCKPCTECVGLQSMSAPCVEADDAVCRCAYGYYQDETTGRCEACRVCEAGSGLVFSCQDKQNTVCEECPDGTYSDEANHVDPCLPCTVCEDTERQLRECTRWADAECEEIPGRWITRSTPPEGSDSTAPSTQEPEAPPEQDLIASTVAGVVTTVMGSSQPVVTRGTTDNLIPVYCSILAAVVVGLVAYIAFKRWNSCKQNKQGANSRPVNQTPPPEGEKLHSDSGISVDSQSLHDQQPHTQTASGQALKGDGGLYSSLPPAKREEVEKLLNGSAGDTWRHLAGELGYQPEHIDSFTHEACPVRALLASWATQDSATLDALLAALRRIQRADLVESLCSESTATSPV

[2] = system: cisplatin sensory neuropathy; details: rats, cited from earlier work
[3] = system: cisplatinum induced neuropathy; experiment: Cisplatinum induced neuropathy in adult rats, H-wave sensory conduction velocity; type: in vivo, rat; details: 1 mg/kg three times per week subcutaneously for four weeks, continued cisplatinum
Experimental: In order to create an animal model of cisplatinum induced neuropathy, adult rats were dosed with cisplatinum twice a week for sixteen weeks with 1 mg/kg intraperitoneally (IP). At this point, rats were split into four groups. All four groups continued receiving cisplatinum twice weekly. […] The NT-3 doses were given subcutaneously, while the Mabs and saline were administered IV. This treatment regime was continued for an additional four weeks, for a total of twenty weeks of cisplatinum administration.

[4] = system: pyridoxine toxicity; details: cited from earlier work
[5] = system: trkC N335A; design: species or system human; details: NB = no binding observed
Text: (§1) A total of 26 single amino acid mutations were made and evaluated for their effect on binding to anti-trkC monoclonal antibodies.

[6] = molecular target: wildtype trkC (Homo sapiens, UniProt Q16288, S70N); experiment: Binding to trkC single amino acid mutants (EC50 ratio); details: wildtype trkC (reference)
Text: (§2) Site-directed mutagenesis approach was used to determine the contribution of selected individual amino acid residues of domain 5 in the recognition by anti-trkC antibodies. […] A total of 26 single amino acid mutations were made and evaluated for their effect on binding to anti-trkC monoclonal antibodies. The values shown in Table 5 represent the ratio of binding to anti-trkC antibody of mutant vs wildtype trkC.

[7] = molecular target: T2, trkC L284E (Homo sapiens, UniProt Q16288, L315E/S70N); experiment: as above; details: NB = no binding observed
T2 construct: made in house
Text: as §2

[8] = molecular target: T3, trkC H318A (Homo sapiens, UniProt Q16288, H349A/S70N); experiment: as above
T3 construct: made in house
Text: as §1

[9] = molecular target: T4, trkC L286H (Homo sapiens, UniProt Q16288, L317H/S70N); experiment: as above; details: NB = no binding observed
T4 construct: made in house
Text: as §2

[10] = molecular target: T5, trkC R285A (Homo sapiens, UniProt Q16288, R316A/S70N); experiment: as above; details: NB = no binding observed
T5 construct: made in house
Text: as §2

[11] = molecular target: T6, trkC E287K (Homo sapiens, UniProt Q16288, E318K/S70N); experiment: as above; details: NB = no binding observed
T6 construct: made in house
Text: as §2

[12] = molecular target: gD-trkC (Homo sapiens, UniProt Q16288); experiment: BIAcore surface plasmon resonance (SPR) affinity; type: binding
Experimental: Affinities of anti-trkC agonist monoclonal antibodies were determined using BIAcore-2000™ surface plasmon resonance (SPR) system (BIAcore, Inc., Piscataway, N.J.). CM5 biosensor chips were activated with N-ethyl-N′-(3-dimethylaminopropyl)-carbodiimide hydrochloride (EDC) and N-hydroxysuccinimide (NHS) according to the supplier's instructions. In the first series of binding experiments, the antigen, gD-tagged trkC, was diluted into 10 mM sodium acetate buffer (pH 4.8), and injected over the activated chip at a concentration of 0.09 mg/mL. Using variable exposure times, four ranges of antigen density were achieved: 14,000-17,000 response units (RU), 7000-9000 RU, 2000-3000 RU, and 400-600 RU. The chip was blocked with ethanolamine.
In the first series of kinetic measurements, anti-trkC antibodies (IgG's) were diluted into running buffer (PBS containing 0.05% Tween-20 and 0.01% sodium azide) and 0.03 mL (667 nM) was injected over the biosensor chip at 25° C. at a flow rate of 0.01 mL/min.
In a second series of experiments, the IgG's (0.1 mg/mL in 10 mM sodium acetate, pH 4.8) were immobilized as described above, except that antibody density was limited to 1000-2000 RU. Two-fold serial dilutions of gD-trkC in the range of […] to 29 nM were then injected over the biosensor chip for kinetics measurements as described above.
The dissociation phase of each kinetic curve were fit to a single exponential dissociation rate (koff), and these rates were used in the calculation of the association rate (kon) from the injection phase, using a simple 1:1 Langmuir binding model (Lofas & Johnsson, 1990).
Equilibrium dissociation constants, Kd's, from SPR measurements were calculated as the ratio koff/kon.
The affinities of anti-trkC antibodies for gD-trkC were measured in SPR kinetics experiments with either antigen or antibody immobilized. Apparent affinities determined from experiments using low densities of immobilized antigen (0.4 to 0.6 ng/mm2), were generally consistent with those determined in experiments using immobilized IgG (see Table 2). […] In some cases, no binding could be detected when trkC was injected over immobilized IgG. This may have occurred because immobilization of the IgG led to steric blocking of the antigen-binding site.

[13] = gD-trkC binding to immobilized IgG's (1000-3000 RU)

Molecule: NGF: nerve growth factor, first identified member of the neurotrophin family
- Kd [1]: 2 nM

Molecule: NT-3: neurotrophin-3, the natural ligand of trkC receptor; positive control and comparator
- cytoplasmic distribution of neurofilament protein in large sensory neurons and numbers of myelinated fibers in sural nerves ([2]; cisplatin): corrected
- H-reflex-related sensory nerve conduction velocity reduced by cisplatin [2]: restored to normal levels
- sensory conduction velocity (H-wave) [3]: improvement of this lowered conduction velocity
- behavioral and electrophysiological sequelae of pyridoxine toxicity (beam-walking, H waves) ([4]; NT-3 5-20 mg/kg/day, s.c., during chronic pyridoxine treatment): largely attenuated
- degeneration of sensory fibers in the dorsal column of the spinal cord ([4]; NT-3 administration during chronic pyridoxine treatment): prevented degeneration of sensory fibers in the dorsal column of the spinal cord

B1: Mab 2250: murine IgG1 agonist anti-trkC monoclonal antibody; hybridoma ATCC PTA-2149; heavy chain SEQ ID NO: 42, light chain SEQ ID NO: 49 (antibody)
heavy: NQVQLQQSGAELMQPGASVKISCKSTGYTFSNFWIEWVKQRPGHGLEWIGEILPGSDNTNYNEKFKGKATFTADTSSNTAYMQLSSLTSEDSAVYYCARKNRNYYGNYVVWGQGTLVTVSAC
light: NDIVMTQSPASLAVSLGQRATISYRASKSVSTSGYSYMHWNQQKPGQPPRLLIYLVSNLESGVPARFSGSGSGTDFTLNIHPVEEEDAATYYCQHIRELTRSARGQSWKKRC
modifications: Murine
- ratio of binding of mutant vs wildtype trkC (EC50 divided by EC50 of wildtype trkC) [5]: 0.5
- ratio of binding of mutant vs wildtype trkC (EC50 divided by EC50 of wildtype trkC) [6]: 1.0
- ratio of binding of mutant vs wildtype trkC (EC50 divided by EC50 of wildtype trkC) [7]: 0.6
- ratio of binding of mutant vs wildtype trkC (EC50 divided by EC50 of wildtype trkC) [8]: 1.0
- ratio of binding of mutant vs wildtype trkC (EC50 divided by EC50 of wildtype trkC) [9]: 0.4
- ratio of binding of mutant vs wildtype trkC (EC50 divided by EC50 of wildtype trkC) [10]: 2.6
- ratio of binding of mutant vs wildtype trkC (EC50 divided by EC50 of wildtype trkC) [11]: 0.8
- Kd ([12]; IgG's binding to immobilized gD-trkC (400-600 RU), read-out: Kd, Immobilized gD-trkC): 8.7 nM
- Kd ([12]; Table 3, read-out: Affinity Kd): 8.7 nM
- Kd ([12]; gD-trkC binding to immobilized IgG's (1000-3000 RU), read-out: Kd, Immobilized IgG): 28 nM

B2: Mab 2345: human IgG2 agonist anti-trkC monoclonal antibody; hybridoma ATCC PTA-2146; heavy chain SEQ ID NO: 47, light chain SEQ ID NO: 54 (antibody, listed as Homo sapiens, V domains shown)
VH: NQVQLQESGPGLVKPSQTLSLTCTVSGGSISSGGYYWSWIRQHPEKGLEWIGYIFYSGRTYYNPSLKSRVTISVDTSKNQFSLKLNSVTAADTAVYYCARERIAAAGADYYYNGLDVWGQGTTVTVSSC
VL: NEIVLTQSPGTLSLSPGERATLSCRASQSVSSNYLTWYQQKPGQAPRLLIYGASSRATGIPDRFSGSGSGTDFTLTISRLEPEDFAVYYCQQYGRSPPITFGQGTRLEIKRC
- Kd, Immobilized IgG [12, 13]: NDB

B3: Mab 2349: human IgG4 agonist anti-trkC monoclonal antibody; hybridoma ATCC PTA-2153; heavy chain SEQ ID NO: 48, light chain SEQ ID NO: 55 (antibody, listed as Homo sapiens, V domains shown)
VH: NQVQLQESGPGLVKPSQTLSLTCTVSGGSISSGYYYWSWIRQHPGKGLEWIGYIYYSGSTYYNPSLKSRLTISVDTSKNQFSLKLSSVTAADTAVYYCARERIAAAGTDYYYNGLAVWGQGTTVTVSSC
VL: NGIVLTQSPGTLSLSPGERATFSCRASQSGSSTYLAWYQQKPGQAPRLLIYGASSRATGIPDRFSGSGSGTDFTLTISRLEPEDFAVYYCQQYGRSPPITFGQGTRLEIKRC
- Kd, Immobilized IgG [12, 13]: NDB

B4: BDNF: brain-derived neurotrophic factor, a neurotrophin (protein, UniProt P23560 19-247, looked up)
Neurotrophic factor BDNF …: APMKEANIRGQGGLAYPGVRTHGTLESVNGPKAGSRGLTSLADTFEHVIEELLDEDQKVRPNEENNKDADLYTSRVMLSSQVPLEPPLLFLLEEYKNYLDAANMSMRVRRHSDPARRGELSVCDSISEWVTAADKKTAVDMSGGTVTVLEKVPVSKGQLKQYFYETKCNPMGYTKEGCRGIDKRHWNSQCRTTQSYVRALTMDSKKRIGWRFIRIDTSCVCTLTIKRGR
- Kd [1]: 2 nM
